The values that follow come from the supplement of paper PMC10567573.

The labels stand for the following.
B1: SOAT1 (parent)
chain: GVLILFLTFFAFLHCWLNAFAEML
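Also: lentivirally expressed fusions sorted by FACS into six bins by GFP to DsRed ratio, PSI derived from sequencing read proportions per bin multiplied by bin number.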

Variants of B1 are the subject of the data set. The experiment in a line: protein stability index of a GFP-peptide fusion (GPS, HEK-293T) (PSI 1-6); higher = more stable. The conditions noted are these: c terminus: a fixed tail appended.
As to GVLILFLTFFQFLHCWLNAFAEML [A11Q], the protein stability index was 2.55. For GVLILFLTFFTFLHCWLNAFAEML [A11T] the value was 3.07; for GVLILFLTFFGFLHCWLNAFAEML [A11G], 1.15. As to GVLILFLTFFIFLHCWLNAFAEML [A11I], the protein stability index is 3.38. In the case of GVLILFLTFFLFLHCWLNAFAEML [A11L], the protein stability index was 1.75. For GVLILFLTFFWFLHCWLNAFAEML [A11W] the value was 1.64; for GVLILFLTFFMFLHCWLNAFAEML [A11M], 3.5. For GVLILFLTFFAFLICWLNAFAEML [H14I] the value was 1.95; for GVLILFLTFFAFLWCWLNAFAEML [H14W], 2.17; for GVLILFLTFFAFLMCWLNAFAEML [H14M], 2.07. For GVLILFLTFFAFLPCWLNAFAEML [H14P] the value was 2.06.

On to GVLILFLTFFAFLQCWLNAFAEML [H14Q], for which the protein stability index came to 2.47. For GVLILFLTFFAFLCCWLNAFAEML [H14C] the value was 2.17. GVLILFLTFFAFLYCWLNAFAEML [H14Y]: the protein stability index came to 2.09. For GVLILFLTFFAFLVCWLNAFAEML [H14V] the value was 1.48; for GVLILFLTFFAFLTCWLNAFAEML [H14T], 2.06. For GVLILFLTFFAFLLCWLNAFAEML [H14L] the value was 1.87. For GVLILFLTFFAFLACWLNAFAEML [H14A] the value was 2.22. Regarding GVLILFLTFFAFLECWLNAFAEML [H14E], the protein stability index came out at 2.94.

In the case of GVLILFLTFFAFLGCWLNAFAEML [H14G], the protein stability index is 2.45. GVLILFLTFFAFLFCWLNAFAEML [H14F]: the protein stability index amounted to 1.52. For GVLILFLTFFAFLRCWLNAFAEML [H14R] the value was 2.68; for GVLILFLTFFAFLKCWLNAFAEML [H14K], 2.17. As for GVLILFLTFFAFLDCWLNAFAEML [H14D], the protein stability index stood at 3.15.

Turning to GVLILFLTFFAFLSCWLNAFAEML [H14S], the protein stability index is 2.02. For GVLILFLTFFAFLHVWLNAFAEML [C15V] the value was 2; for GVLILFLTFFAFLHYWLNAFAEML [C15Y], 2.79; for GVLILFLTFFAFLHNWLNAFAEML [C15N], 3.02. For GVLILFLTFFAFLHDWLNAFAEML [C15D] the value was 1.44. For GVLILFLTFFAFLHKWLNAFAEML [C15K] the value was 3.47; for GVLILFLTFFAFLHMWLNAFAEML [C15M], 3.37; for GVLILFLTFFAFLHGWLNAFAEML [C15G], 2.01.

GVLILFLTFFAFLHAWLNAFAEML [C15A]: the protein stability index was 2.75. For GVLILFLTFFAFLHEWLNAFAEML [C15E] the value was 2.28. For GVLILFLTFFAFLHPWLNAFAEML [C15P] the value was 2.81; for GVLILFLTFFAFLHHWLNAFAEML [C15H], 1.99; for GVLILFLTFFAFLHLWLNAFAEML [C15L], 2.97. In the case of GVLILFLTFFAFLHQWLNAFAEML [C15Q], the protein stability index was found to be 3.3. As to GVLILFLTFFAFLHFWLNAFAEML [C15F], the protein stability index amounted to 2.27. On to GVLILFLTFFAFLHRWLNAFAEML [C15R], for which the protein stability index was determined as 1.95.

Regarding GVLILFLTFFAFLHIWLNAFAEML [C15I], the protein stability index was found to be 2.55. In the case of GVLILFLTFFAFLHWWLNAFAEML [C15W], the protein stability index came to 3.12. On to GVLILFLTFFAFLHSWLNAFAEML [C15S], for which the protein stability index stood at 1.83.

In the case of GVLILFLTFFAFLHTWLNAFAEML [C15T], the protein stability index came to 2.47.

Regarding GVLILFLTFNAFLHCWLNAFAEML [F10N], the protein stability index was determined as 3.82. Take GVLILFLTFAAFLHCWLNAFAEML [F10A]: the protein stability index came out at 3.62. For GVLILFLTFKAFLHCWLNAFAEML [F10K] the value was 2.35; for GVLILFLTFTAFLHCWLNAFAEML [F10T], 3.52. For GVLILFLTFLAFLHCWLNAFAEML [F10L] the value was 2.24; for GVLILFLTFEAFLHCWLNAFAEML [F10E], 2.27. Regarding GVLILFLTFMAFLHCWLNAFAEML [F10M], the protein stability index is 1.67. For the variant GVLILFLTFVAFLHCWLNAFAEML [F10V], the protein stability index is 2.75.

With GVLILFLTFHAFLHCWLNAFAEML [F10H], the protein stability index turned out to be 2.17. For GVLILFLTFQAFLHCWLNAFAEML [F10Q] the value was 4.33; for GVLILFLTFCAFLHCWLNAFAEML [F10C], 2.63; for GVLILFLTFSAFLHCWLNAFAEML [F10S], 2.2.

GVLILFLTFYAFLHCWLNAFAEML [F10Y]: the protein stability index was determined as 3.58.

Turning to GVLILFLTFIAFLHCWLNAFAEML [F10I], the protein stability index was 2.54. As to GVLILFLTFRAFLHCWLNAFAEML [F10R], the protein stability index was 3.84. For GVLILFLTPFAFLHCWLNAFAEML [F9P] the value was 3.94; for GVLILFLTQFAFLHCWLNAFAEML [F9Q], 2.33; for GVLILFLTAFAFLHCWLNAFAEML [F9A], 1.36.

As to GVLILFLTIFAFLHCWLNAFAEML [F9I], the protein stability index was found to be 1.34. For GVLILFLTHFAFLHCWLNAFAEML [F9H] the value was 4.54; for GVLILFLTKFAFLHCWLNAFAEML [F9K], 3.13. Turning to GVLILFLTCFAFLHCWLNAFAEML [F9C], the protein stability index came out at 3.31. For GVLILFLTSFAFLHCWLNAFAEML [F9S] the value was 1.94; for GVLILFLTGFAFLHCWLNAFAEML [F9G], 4.01. For GVLILFLTEFAFLHCWLNAFAEML [F9E] the value was 3.8; for GVLILFLTDFAFLHCWLNAFAEML [F9D], 3.34; for GVLILFLTWFAFLHCWLNAFAEML [F9W], 3.04. As to GVLILFLTNFAFLHCWLNAFAEML [F9N], the protein stability index amounted to 2.46.

Consider GVLILFLTYFAFLHCWLNAFAEML [F9Y], for which the protein stability index turned out to be 2.83. As for GVLILFLTTFAFLHCWLNAFAEML [F9T], the protein stability index was determined as 2.68. GVLILFLTVFAFLHCWLNAFAEML [F9V]: the protein stability index was found to be 3.43. For GVLILFLTMFAFLHCWLNAFAEML [F9M] the value was 3.56. For GVLILFLTFFAFLHCGLNAFAEML [W16G] the value was 3.64; for GVLILFLTFFAFLHCLLNAFAEML [W16L], 3.2. For GVLILFLTFFAFLHCPLNAFAEML [W16P] the value was 2.19. As for GVLILFLTFFAFLHCYLNAFAEML [W16Y], the protein stability index turned out to be 2.31. For GVLILFLTFFAFLHCNLNAFAEML [W16N] the value was 2.59; for GVLILFLTFFAFLHCCLNAFAEML [W16C], 2.68; for GVLILFLTFFAFLHCILNAFAEML [W16I], 2.96. For GVLILFLTFFAFLHCKLNAFAEML [W16K] the value was 2.19; for GVLILFLTFFAFLHCQLNAFAEML [W16Q], 2.55.

Consider GVLILFLTFFAFLHCSLNAFAEML [W16S], for which the protein stability index worked out at 3.04. For GVLILFLTFFAFLHCMLNAFAEML [W16M] the value was 3.65; for GVLILFLTFFAFLHCDLNAFAEML [W16D], 2.4; for GVLILFLTFFAFLHCALNAFAEML [W16A], 2. For GVLILFLTFFAFLHCELNAFAEML [W16E] the value was 3.24; for GVLILFLTFFAFLHCTLNAFAEML [W16T], 3.45; for GVLILFLTFFAFLHCVLNAFAEML [W16V], 3.12. For GVLILFLTFFAFLHCHLNAFAEML [W16H] the value was 3.94; for GVLILFLTFFAFLHCFLNAFAEML [W16F], 3.85.
